Data set [1] deals with the molecule itself. As to the kind of experiment: oligomeric state of the mutant, self-association.
Data set [2] concerns the molecule itself. Briefly: fluorescence excitation spectra, FRET within the oligomer.
Protocol: Absorption/Fluorescence Spectra and Extinction Coefficients—Fluorescence spectra were taken with a Fluorolog spectrofluorimeter (Spex Industries, Edison, N.J.). Absorbance spectra of proteins were taken with a Cary ITV-V is spectrophotometer. […] Corrections were included in the quantum yield calculation for the refractive index difference between ethanol and water. For extinction coefficient determination, native protein absorbance was measured with the spectrophotometer, and protein concentration was measured by the BCA method (Pierce).
Data set [3] concerns the molecule itself. As to the kind of experiment: non-denaturing polyacrylamide gel electrophoresis, self-association. The method, then:
The mutant proteins were prepared following standard methodology and analyzed with polyacrylamide gel electrophoresis as described (Baird et al., supra, 2000). […] This solution was centrifuged in a Beckman XL-1 analytical ultracentrifuge in PBS at 10,000 rpm, 12,000 rpm, 14,000 rpm, and 20,000 rpm.
No attempt was made to disrupt the A:B and C:D interfaces.

Data set [4] deals with the molecule itself. As to the kind of experiment: analytical equilibrium centrifugation; model in which the tetramer dimerizes into an octamer.
Protocol: The data were analyzed globally at 10,000, 14,000, and 20,000 rpm by nonlinear least-squares analysis using the Origin software package (Beckman). The goodness of fit was evaluated on the basis of the magnitude and randomness of the residuals, expressed as the difference between the experimental data and the theoretical curve and also by checking each of the fit parameters for physical reasonability.
Data set [5] concerns the molecule itself. As to the kind of experiment: SDS-PAGE without boiling, self-association.
Data set [6] deals with the molecule itself. Briefly: SDS-PAGE with and without boiling, intermolecular self-association.
The target in data set [7] is T1, DsRed fused downstream of the Gal4 DNA binding domain (pGBT9) (Discosoma sp.).
T1 construct: range 1-147; also called DsRed-prey
As to the kind of experiment: yeast two hybrid, negative control. The procedure: Yeast two hybrid assays were also performed. […] Alternatively, the yeast were grown on filters placed on plates lacking tryptophan and leucine to select for the bait and prey plasmids. After overnight growth, the filters were removed from the plates, frozen in liquid nitrogen, thawed, and incubated in X-gal overnight at 30° C. and two days at 4° C. to test for β-galactosidase activity (assayed by blue color development).

Data set [8] concerns the molecule itself. As to the kind of experiment: analytical equilibrium ultracentrifugation, self-association.
Protocol: The data were analyzed globally at 10K, 14K, and 20K rpm by nonlinear least-squares analysis using the ORIGIN software package supplied by Beckman. The goodness of fit was evaluated on the basis of the magnitude and randomness of the residuals, expressed as the difference between the experimental data and the theoretical curve and also by checking each of the fit parameters for physical reasonability.

B1: DsRed-I125R (other)
chain: MRGSHHHHHHGMASMTGGQQMGRDLYDDDDKDPMRSSKNVIKEFMRFKVRMEGTVNGHEFEIEGEGEGRPYEGHNTVKLKVTKGGPLPFAWDILSPQFQYGSKVYVKHPADIPDYKKLSFPEGFKWERVMNFEDGGVVTVTQDSSLQDGCFIYKVKFRGVNFPSDGPVMQKKTMGWEASTERLYPRDGVLKGEIHKALKLKDGGHYLVEFKSIYMAKKPVQLPGYYYVDSKLDITSHNEDYTIVEQYERTEGRHHLFL
notes: Protomer
For B1, the binding result in data set [1] is on record as “binds”.

B2: T1 (Discosoma sp. variant fast T1 red fluorescent protein) (other)
chain: MRGSHHHHHHGMASMTGGQQMGRDLYDDDDKDPMASSEDVIKEFMRFKVRMEGSVNGHEFEIEGEGEGRPYEGTQTAKLKVTKGGPLPFAWDILSPQFQYGSKVYVKHPADIPDYKKLSFPEGFKWERVMNFEDGGVVTVTQDSSLQDGSFIYKVKFIGVNFPSDGPVMQKKTMGWEASTERLYPRDGVLKGEIHKALKLKDGGHYLVEFKSIYMAKKPVQLPGYYYVDSKLDITSHNEDYTIVEQYERAEGRHHLFL
notes: Protomer of a tetramer; also called fast tetramer T1; DsRed-Express
Take B2: the binding result in data set [2] was “binds”.

B3: DsRed I125K (other)
chain: MRGSHHHHHHGMASMTGGQQMGRDLYDDDDKDPMRSSKNVIKEFMRFKVRMEGTVNGHEFEIEGEGEGRPYEGHNTVKLKVTKGGPLPFAWDILSPQFQYGSKVYVKHPADIPDYKKLSFPEGFKWERVMNFEDGGVVTVTQDSSLQDGCFIYKVKFKGVNFPSDGPVMQKKTMGWEASTERLYPRDGVLKGEIHKALKLKDGGHYLVEFKSIYMAKKPVQLPGYYYVDSKLDITSHNEDYTIVEQYERTEGRHHLFL
notes: Protomer; mixture of dimer and tetramer
In the case of B3, the binding result in data set [3] was “binds”.

B4: T1 DsRed-I125R (other)
chain: MRGSHHHHHHGMASMTGGQQMGRDLYDDDDKDPMASSEDVIKEFMRFKVRMEGSVNGHEFEIEGEGEGRPYEGTQTAKLKVTKGGPLPFAWDILSPQFQYGSKVYVKHPADIPDYKKLSFPEGFKWERVMNFEDGGVVTVTQDSSLQDGSFIYKVKFRGVNFPSDGPVMQKKTMGWEASTERLYPRDGVLKGEIHKALKLKDGGHYLVEFKSIYMAKKPVQLPGYYYVDSKLDITSHNEDYTIVEQYERAEGRHHLFL
notes: Protomer; forms a dimer; also called T1-I125R
B4: the binding result in data set [1] is listed as “binds”.

B5: DsRed obligate tetramer (polyHis-tagged) (other)
chain: MRGSHHHHHHGMASMTGGQQMGRDLYDDDDKDPMRSSKNVIKEFMRFKVRMEGTVNGHEFEIEGEGEGRPYEGHNTVKLKVTKGGPLPFAWDILSPQFQYGSKVYVKHPADIPDYKKLSFPEGFKWERVMNFEDGGVVTVTQDSSLQDGCFIYKVKFIGVNFPSDGPVMQKKTMGWEASTERLYPRDGVLKGEIHKALKLKDGGHYLVEFKSIYMAKKPVQLPGYYYVDSKLDITSHNEDYTIVEQYERTEGRHHLFL
notes: The tetramer as a unit, for the fitted tetramer-to-octamer dissociation constant; also called tetramer of polyHis-tagged DsRed
Usually Kd stands for the equilibrium constant for the complex coming apart. A higher Kd goes with weaker binding. As for B5, the Kd in data set [4] came to 39 µM.

B6: tandem DsRed (tDsRed) (other)
chain: MRGSHHHHHHGMASMTGGQQMGRDLYDDDDKDPMRSSKNVIKEFMRFKVRMEGTVNGHEFEIEGEGEGRPYEGHNTVKLKVTKGGPLPFAWDILSPQFQYGSKVYVKHPADIPDYKKLSFPEGFKWERVMNFEDGGVVTVTQDSSLQDGCFIYKVKFIGVNFPSDGPVMQKKTMGWEASTERLYPRDGVLKGEIHKALKLKDGGHYLVEFKSIYMAKKPVQLPGYYYVDSKLDITSHNEDYTIVEQYERTEGRHHLFLGSTSGSGKPGSGEGSTKGMRSSKNVIKEFMRFKVRMEGTVNGHEFEIEGEGEGRPYEGHNTVKLKVTKGGPLPFAWDILSPQFQYGSKVYVKHPADIPDYKKLSFPEGFKWERVMNFEDGGVVTVTQDSSLQDGCFIYKVKFIGVNFPSDGPVMQKKTMGWEASTERLYPRDGVLKGEIHKALKLKDGGHYLVEFKSIYMAKKPVQLPGYYYVDSKLDITSHNEDYTIVEQYERTEGRHHLFL
B6: in data set [5], the binding result is given as “binds”.

B7: tandem DsRed-I125R (tDsRed-I125R) (other)
chain: MRGSHHHHHHGMASMTGGQQMGRDLYDDDDKDPMRSSKNVIKEFMRFKVRMEGTVNGHEFEIEGEGEGRPYEGHNTVKLKVTKGGPLPFAWDILSPQFQYGSKVYVKHPADIPDYKKLSFPEGFKWERVMNFEDGGVVTVTQDSSLQDGCFIYKVKFRGVNFPSDGPVMQKKTMGWEASTERLYPRDGVLKGEIHKALKLKDGGHYLVEFKSIYMAKKPVQLPGYYYVDSKLDITSHNEDYTIVEQYERTEGRHHLFLGSTSGSGKPGSGEGSTKGMRSSKNVIKEFMRFKVRMEGTVNGHEFEIEGEGEGRPYEGHNTVKLKVTKGGPLPFAWDILSPQFQYGSKVYVKHPADIPDYKKLSFPEGFKWERVMNFEDGGVVTVTQDSSLQDGCFIYKVKFRGVNFPSDGPVMQKKTMGWEASTERLYPRDGVLKGEIHKALKLKDGGHYLVEFKSIYMAKKPVQLPGYYYVDSKLDITSHNEDYTIVEQYERTEGRHHLFL
As to B7, the binding result in data set [6] is reported as “no binding”.

B8: Gal4 activation domain alone (pGAD GH without DsRed) (other, UniProt P04386 768-881, looked up)
chain: ANFNQSGNIADSSLSFTFTNSSNGPNLITTQTNSQALSQPIASSNVHDNFMNNEITASKIDDGNNSKPLSPGWTDQTAYNAFGITTGMFNTTTMDDVYNYLFDDEDTPPNPKKE
notes: range 768-881; Negative control of the two hybrid assay
In the case of B8, the binding result in data set [7] is “no binding”.

B9: dimer2 (Discosoma variant red fluorescent protein) (other)
chain: MRGSHHHHHHGMASMTGGQQMGRDLYDDDDKDPMVASSEDVIKEFMRFKVRMEGSVNGHEFEIEGEGEGRPYEGTQTAKLKVTKGGPLPFAWDILSPQFQYGSKAYVKHPADIPDYKKLSFPEGFKWERVMNFEDGGVVTVTQDSSLQDGTLIYKVKFRGTNFPPDGPVMQKKTMGWEASTERLYPRDGVLKGEIHQALKLKDGGHYLVEFKTIYMAKKPVQLPGYYYVDTKLDITSHNEDYTIVEQYERSEGRHHLFL
notes: Protomer; forms an AC dimer
Regarding B9, the binding result in data set [8] was “binds”.
